Results published in publication PMC8526623, “PHF3 regulates neuronal gene expression through the Pol II CTD reader domain SPOC” (Nature Communications, 2021).
Square brackets hold non-standard residues; d marks the D form. Ends that are not written are not given here. pS = N[C@@H](COP(=O)(O)O)C(=O)O; FAM = 5,6-carboxyfluorescein

What was measured:
[1] = target: T1, 2xpS2 CTD diheptapeptide, FAM-labeled; assay: fluorescence polarisation; fluorescence anisotropy; 10 nM FAM-labeled CTD peptide titrated with SPOC protein; 20 °C, 25 mM Tris-Cl pH 8, 25 mM NaCl, 1 mM DTT; one site saturation with non-specific binding model
T1 construct: CTD diheptapeptide: two heptarepeats (Y1S2P3T4S5P6S7) of the C-terminal domain of RPB1, the largest Pol II subunit; source: synthetic peptide (Clonestar)
T1 peptide: {FAM}-Y[pS]PTSPSY[pS]PTSPS

[2] = target: T2, 2xpS2pS7 CTD diheptapeptide, FAM-labeled; assay: as above
T2 construct: CTD diheptapeptide: two heptarepeats (Y1S2P3T4S5P6S7) of the C-terminal domain of RPB1, the largest Pol II subunit; source: synthetic peptide (Clonestar)
T2 peptide: {FAM}-Y[pS]PTSP[pS]Y[pS]PTSP[pS]

[3] = target: T3, 2xpS2pS5 CTD diheptapeptide, FAM-labeled; assay: as above
T3 construct: CTD diheptapeptide: two heptarepeats (Y1S2P3T4S5P6S7) of the C-terminal domain of RPB1, the largest Pol II subunit; source: synthetic peptide (Clonestar)
T3 peptide: {FAM}-Y[pS]PT[pS]PSY[pS]PT[pS]PS

[4] = target: 2xpS5 CTD diheptapeptide, FAM-labeled; assay: as above
[5] = target: 2xpS7 CTD diheptapeptide, FAM-labeled; assay: as above
[6] = target: 2xpS2pS5 CTD diheptapeptide, Atto-488 labeled; assay: fluorescence correlation spectroscopy (FCS); 15 nM Atto-488 labeled peptide with 40-0.2 µM SPOC, 20 °C; molar masses from diffusion times
[7] = target: 2xpS2 CTD diheptapeptide, Atto-488 labeled; assay: as above
[8] = target: T4, PHF3 SPOC domain (1199-1356aa), bacterially expressed (human, UniProt Q92576 1199-1356); assay: FP; 100 mM NaCl
T4 chain: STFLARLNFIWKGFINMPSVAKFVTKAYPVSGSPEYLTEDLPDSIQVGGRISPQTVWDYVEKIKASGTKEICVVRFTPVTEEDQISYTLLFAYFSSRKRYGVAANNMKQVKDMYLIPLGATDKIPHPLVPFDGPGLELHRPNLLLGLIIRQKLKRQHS

PHF3 SPOC R1248A mutant = target: T5, PHF3 SPOC R1248A mutant (human, UniProt Q92576 1199-1356, R1248A); assay: FP; 25 mM NaCl
T5 sequence: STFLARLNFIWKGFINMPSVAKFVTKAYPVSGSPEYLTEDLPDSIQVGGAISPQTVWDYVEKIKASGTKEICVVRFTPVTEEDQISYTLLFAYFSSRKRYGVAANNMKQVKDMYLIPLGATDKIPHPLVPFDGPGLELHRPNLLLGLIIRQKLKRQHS

In the case of “PHF3 SPOC domain (1199-1356aa), bacterially expressed (from UniProt Q92576 1199-1356) (domain or fragment)”, the Kd [1] is reported as 1.6 µM, the Kd [2] is reported as 0.8 µM and the Kd [3] is reported as 4.8 µM. The Kd [4] was 20 µM, the Kd [5] was 26 µM and the stoichiometry N [6] was 1. For the same molecule, the stoichiometry N [7] was 1.

B1: 2xpS2 CTD diheptapeptide, FAM-labeled (peptide)
peptide: {FAM}-Y[pS]PTSPSY[pS]PTSPS
Work on B1 yielded a Kd [8] of 1.4 µM.

B2: 2xpS5 CTD diheptapeptide, FAM-labeled (peptide)
peptide: {FAM}-YSPT[pS]PSYSPT[pS]PS
B2 showed a Kd (PHF3 SPOC R1248A mutant) of 22.3 µM.

B3: PHF3 SPOC R1248A mutant (domain or fragment, human, UniProt Q92576 1199-1356, looked up)
chain: STFLARLNFIWKGFINMPSVAKFVTKAYPVSGSPEYLTEDLPDSIQVGGAISPQTVWDYVEKIKASGTKEICVVRFTPVTEEDQISYTLLFAYFSSRKRYGVAANNMKQVKDMYLIPLGATDKIPHPLVPFDGPGLELHRPNLLLGLIIRQKLKRQHS
notes: Expression, purification and tag cleavage are told only for SPOC in general; source: E. coli Rosetta2 (DE3), purified (told for SPOC); not shown: His6, N-terminal, cleaved
In the case of B3, the “fold reduction of binding against PHF3 SPOC WT” value (from here on “fold reduction of binding”) ([1]; both partners purified) is reported as greater than 10 fold, the “fold reduction of binding” value ([2]; both partners purified) is reported as greater than 10 fold and the “fold reduction of binding” value ([3]; both partners purified) is reported as greater than 10 fold.

B4: 2xpS2pS5 CTD diheptapeptide, FAM-labeled (peptide)
peptide: {FAM}-Y[pS]PT[pS]PSY[pS]PT[pS]PS
B4 gave a Kd (PHF3 SPOC R1248A mutant) of 48.3 µM.
